Data from patent US20220395553A1 (COHBAR, published 2022).
Square brackets hold non-standard residues; d marks the D form. Ends that are not written are not given here.

B1: SEQ ID NO: 18 (peptide)
peptide: LERYHHSVRSSLRPYT
B2: SEQ ID NO: 53 (peptide)
peptide: LRRFHHSVRSSLRPYTK
B3: SEQ ID NO: 7 (peptide)
peptide: LDRYHHSVRSSLRPYTK
B4: SEQ ID NO: 54 (peptide)
peptide: LERFHHSVRSSLRPYTK
B5: SEQ ID NO: 73 (peptide)
peptide: LERYHHSVRTSLRPYTK
B6: SEQ ID NO: 74 (peptide)
peptide: LERYHHSVRSTLRPYTK
B7: SEQ ID NO: 70 (peptide)
peptide: LRRYHHSVRTSLRPYTK
B8: SEQ ID NO: 75 (peptide)
peptide: LERYHHSVRSSLRPYSK
B9: SEQ ID NO: 39 (peptide)
peptide: LERYHHTVRSSLRPYTK
B10: SEQ ID NO: 80 (peptide)
peptide: LERYHHSVRSSLRGYTK
B11: SEQ ID NO: 60 (peptide)
peptide: LERYHHSVRSSLRPFTK
B12: SEQ ID NO: 8 (peptide)
peptide: LDRYHHS[dA]RSSLRPYTK
B13: SEQ ID NO: 57 (peptide)
peptide: LERYHHS[dA]RSSLRPYTK-NH2
modifications: N-terminus assumed
SMILES: CC(C)C[C@H](NC(=O)[C@H](CO)NC(=O)[C@H](CO)NC(=O)[C@H](CCCNC(=N)N)NC(=O)[C@@H](C)NC(=O)[C@H](CO)NC(=O)[C@H](Cc1c[nH]cn1)NC(=O)[C@H](Cc1c[nH]cn1)NC(=O)[C@H](Cc1ccc(O)cc1)NC(=O)[C@H](CCCNC(=N)N)NC(=O)[C@H](CCC(=O)O)NC(=O)[C@@H](N)CC(C)C)C(=O)N[C@@H](CCCNC(=N)N)C(=O)N1CCC[C@H]1C(=O)N[C@@H](Cc1ccc(O)cc1)C(=O)N[C@H](C(=O)N[C@@H](CCCCN)C(N)=O)[C@@H](C)O
B14: SEQ ID NO: 81 (peptide)
peptide: LERYHHS[dA]RSSLRGYTK
B15: SEQ ID NO: 72 (peptide)
peptide: LRRYHHSVRSSLRPYSK
B16: SEQ ID NO: 55 (peptide)
peptide: LERFHHS[dA]RSSLRPYTK
B17: SEQ ID NO: 59 (peptide)
peptide: LRRYHHSVRSSLRPFTK

Target: T1, CXCR4 on cultured U937 and Jurkat cells (human, UniProt P61073 1-352)
Test: cell-based or functional assay

T1 sequence (P61073 whole entry): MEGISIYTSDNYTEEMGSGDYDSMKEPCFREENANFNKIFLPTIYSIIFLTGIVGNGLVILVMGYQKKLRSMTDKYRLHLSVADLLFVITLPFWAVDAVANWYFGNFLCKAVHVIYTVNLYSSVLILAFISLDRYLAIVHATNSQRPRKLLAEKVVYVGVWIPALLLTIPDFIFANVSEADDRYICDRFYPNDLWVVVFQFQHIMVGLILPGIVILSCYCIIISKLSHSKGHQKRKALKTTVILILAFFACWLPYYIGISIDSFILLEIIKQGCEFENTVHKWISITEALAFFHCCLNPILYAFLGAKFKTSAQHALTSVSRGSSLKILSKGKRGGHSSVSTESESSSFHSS

Binder | Percent Inhibition of CXCL12 Mediated Migration (1.1 µM Test Article; Jurkat cells) [%]
B1 | 66
B2 | 59
B3 | 52
B4 | 54
B5 | 82
B6 | 61
B7 | 21
B8 | 81
B9 | 77
B10 | 71
B11 | 33
B12 | 94
B13 | 30

Target: ProLink tagged human CXCR4 (C2C12 CXCR4 β-Arrestin cell line) (human, UniProt P61073 1-352)
Test: cell-based or functional assay

Chain of ProLink tagged human CXCR4 (C2C12 CXCR4 β-Arrestin cell line) (P61073 whole entry): as above

Binder | IC50 for Inhibition of CXCR4 Activation (β-Arrestin recruitment) [nM]
B1 | 24
B2 | 3
B3 | 1.5
B4 | 3
B5 | 4
B6 | 5
B14 | 3
B15 | 5
B7 | 2
B16 | 4
B8 | 4
B9 | 3
B10 | 4
B11 | 4
B12 | 3
B17 | 3
B13 | 33

Target: T1, CXCR4 on cultured U937 and Jurkat cells
Test: cell-based or functional assay
Remark: another data set of the same source

Binder | Percent Inhibition of CXCR4/CXCL12 Induced p-MEK (100 nM Test Article) [%] | Percent Inhibition of CXCR4/CXCL12 Induced p-MEK (1 µM Test Article) [%]
B1 | 45 | 78
B2 | 62 | 98
B3 | 60 | 96
B4 | 46 | 92
B5 | 47 | 96
B6 | 48 | 93
B14 | -16 | 20
B15 | 8 | 86
B7 | 57 | 93
B16 | 16 | 72
B8 | 60 | 100
B9 | 38 | 95
B10 | 52 | 96
B11 | 34 | 82
B12 | 32 | 88
B17 | 43 | 93
B13 | 10 | 72

Target: T2, SNAP tagged-CXC4 receptor labeled with terbium (Tag-lite CXCR4 cells, HEK293) (UniProt P61073 1-352, SNAP tag labeled with terbium fluorescent dye)
T2 construct: whole, on cells; Bought frozen cells (PerkinElmer-CisBio), HEK293 transiently expressing the receptor; also called terbium labeled CXCR receptor
Test: HTRF competition on Tag-lite CXCR4 HEK293 cells; competitor labelled CXCL12
Description: Peptides were initially prepared as 1 mM stock in H₂O and tested at a final concentration of 400 nM. Following the manufacture's protocol, a frozen aliquot of Tag-lite CXCR4 cells was thawed and immediately seeded onto 384-well plates in TLB. Immediately following the addition of cells, 400 nM peptide (final concentration) in TLB was added to the appropriate well. […] The plates were covered in aluminum foil and left at room temperature for 3 hours. Following the 3 hour incubation period, the plates were removed from the incubator and fluorescence measured using a Cytation 1 plate reader using a HTRF filter cube ([…]; BioTek; Winooski, Vt.).

T2 sequence (P61073 whole entry): as above

Binder | Percent Inhibition of CXCR4/CXCL12 Binding (400 nM peptide) [%]
B1 | 57
B2 | 5
B3 | 89
B4 | 79
B5 | 87
B6 | 88
B14 | 81
B15 | 6
B7 | 11
B16 | 56
B8 | 81
B9 | 87
B10 | 88
B11 | 60
B12 | 86
B17 | -3

Target: T2, SNAP tagged-CXC4 receptor labeled with …
Test: as above
Remark: another data set of the same source
Description: Peptides were initially prepared as 1 mM stock in H₂O. […] Following the manufacture's protocol, a frozen aliquot of Tag-lite CXCR4 cells was thawed and immediately seeded onto 384-well plates in TLB. […] The plates were covered in aluminum foil and left at room temperature for 3 hours. Following the 3 hour incubation period, the plates were removed from the incubator and fluorescence measured using a Cytation 1 plate reader using a HTRF filter cube ([…]; BioTek; Winooski, Vt.).

Binder | IC50 [nM]
B1 | 18
B2 | 108
B3 | 5
B4 | 8
B5 | 10
B6 | 6
B14 | 23
B15 | 589
B7 | 336
B16 | 31
B8 | 11
B9 | 8
B10 | 6
B11 | 17
B12 | 9
B17 | 382
